These results are taken from patent US20070041944A1, “Treating tumors by ENH dislocation of ID proteins” (THE TRUSTEES OF COLUMBIA UNIVERSITY IN THE CITY OF NEW YORK, priority 2005, published 2007).

What all share (assay type): cell-based, human
Assay [1] deals with IMR-32 neuroblastoma cell line. The assay can be described thus: Colony-forming assay. The settings on record: transfected with pcDNA3-ENH, G418 selection 14 days. The source says:
(§1) Cell Culture, Colony-Forming Assay, and Transfection: Neuroblastoma cell lines SK-N-SH, IMR-32, and LAN-1, the glioma cell lines SF188, and COS-1 cells were maintained in 10% FBS (Sigma) in DMEM (Cambrex). For colony-forming assay cells were transfected with pcDNA3-ENH or vector control. Cells were selected in G418 for 14 days, and colonies were scored in triplicate cultures. Cells were transfected by using Lipofectamine 2000 according to the manufacturer's instructions.
(§2) A well known function of Id2 is the ability to enhance cell proliferation by promoting the transition from G1 to S phase of the cell cycle. Therefore, it was asked whether ENH inhibited cell proliferation and opposed Id2-mediated entry into S phase. […] Next SK-N-SH was transfected with ENH and Id2 in the presence of a GFP expression plasmid and measured the rate of DNA synthesis by incorporation of BrdU of the successfully transfected, GFP-positive cells.

For a further assay, the system named is SF188 glioma cell line. The assay can be described thus: Colony-forming assay. To be noted: transfected with pcDNA3-ENH, G418 selection 14 days.
Excerpt: as §1, §2

In assay [2] the test system is SK-N-SH neuroblastoma cell line. The assay can be described thus: Colony-forming assay. The settings on record: transfected with pcDNA3-ENH, G418 selection 14 days.
Excerpt: as §1, §2

The subject of assay [3] is Id2 inhibition of E47-mediated transcription. Description: E-box-luciferase reporter assay. To be noted: E-box-luc with E47, Id2 and increasing amounts of ENH (0.375, 0.5, 0.625 μg); FIG. 6A. How it is done:
Luciferase Assay: The luciferase reporter construct 5xE-box-luciferase (Lasorella, A. et al., (1996) Mol. Cell. Biol., 16:2570-2578) was cotransfected with pcDNA.3-E47 and pcDNA.3 vector or pcDNA.3-Id2 and pcDNA.3-ENH into SK-N-SH cells. pCMV-β-gal was cotransfected for normalization. Twenty-four hours later luciferase and β-galactosidase activities were measured as described (Lasorella, A. et al., (2000) Nature, 407:592-598).
To test the hypothesis that ENH restrains the inhibitory effects of Id2 on bHLH-mediated transcription by acting as a cytoplasmic retention factor for Id2, luciferase reporter assays were performed with five multimerized E-boxes driving expression of luciferase (E-box-luc). The E-box-luc plasmid was transfected in the presence of mammalian expression vectors for the ubiquitously expressed bHLH protein E47, Id2, and increasing amounts of ENH. Id2 inhibition of E47-mediated transcription was relieved by coexpression of ENH in a dose-dependent manner (FIG. 6A).
On the technique in general: A reporter such as luciferase makes a cellular process visible.

B1: ENH: actin cytoskeleton-associated PDZ-LIM protein ENH (Enigma Homologue), full-length, SEQ ID NO:4; also used Flag-tagged (protein, listed as Homo sapiens)
chain: MSNYSVSLVGPAPWGFRLQGGKDFNMPLTISSLKDGGKAAQANVRIGDVVLSIDGINAQGMTHLEAQNKIKGCTGSLNMTLQRASAAPKPEPVPVQKGEPKEVVKPVPITSPAVSKVTSTNNMAYNKAPRPFGSVSSPKVTSIPSPSSAFTPAHATTSSHASPSPVAAVTPPLFAASGLHANANLSADQSPSALSAGKTAVNVPRQPTVTSVCSETSQELAEGQRRGSQGDSKQQNGPPRKHIVERYTEFYHVPTHSDASKKRLIEDTEDWRPRTGTTQSRSFRILAQITGTEHLKESEADNTKKANNSQEPSPQLASSVASTRSMPESLDSPTSGRPGVTSLTTAAAFKPVGSTGVIKSPSWQRPNQGVPSTGRISNSATYSGSVAPANSALGQTQPSDQDTLVQRAEHIPAGKRTPMCAHCNQVIRGPFLVALGKSWHPEEFNCAHCKNTMAYIGFVEEKGALYCELCYEKFFAPECGRCQRKILGEVINALKQTWHVSCFVCVACGKPIRNNVFHLEDGEPYCETDYYALFGTICHGCEFPIEAGDMFLEALGYTWHDTCFVCSVCCESLEGQTFFSKKDKPLCKKHAHSVNF
B1: the colony formation result (in assay [1]; in the assay with SF188 glioma cell line; in assay [2]) was “markedly inhibited” throughout. The “Id2 inhibition of E47-mediated transcription (luciferase activity)” value in assay [3] is “relieved”.
